Columns and labels:
[1] = target: AbApeO-AbApeC heterodimer (ketosynthase-chain length factor complex of the aryl polyene biosynthesis gene cluster of Acinetobacter baumannii) (Acinetobacter baumannii); assay: ITC; 2.0 mM holo ACP1 or holo ACP2 injected (19 injections of 3 µl) into 0.1 mM AbApeO-AbApeC or AbApeR; 25 °C; 40 mM potassium phosphate pH 7.0; 2 mM 2-mercaptoethanol
[2] = target: AbApeR (FabB-like homodimeric ketosynthase of the A. baumannii APE gene cluster) (Acinetobacter baumannii); assay: as above

- Kd [1]: 74 nM
- stoichiometry N [1]: 1.63
- Kd [2]: 18 µM
- stoichiometry N [2]: 1.55
Substance: holo ACP1 (ApeE), acyl carrier protein 1 of the A. baumannii APE gene cluster (natural protein)

— paper PMC8358021
